Test results taken from patent US20160046944, “APTAMER TO IL-17 AND USE THEREOF” (THE UNIVERSITY OF TOKYO, published 2016).
Substitutions are numbered along the chain they refer to.

T1: IL-17 (Homo sapiens, UniProt Q16552 Q16552:24-155)
T1 sequence: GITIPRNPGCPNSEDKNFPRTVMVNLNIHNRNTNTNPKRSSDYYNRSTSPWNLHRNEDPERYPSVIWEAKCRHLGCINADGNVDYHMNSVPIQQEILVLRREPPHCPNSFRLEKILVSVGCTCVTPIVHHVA

B1: aptamer No. 83 (mixed)
RNA: GGGUAGCCGGAGGAGUCAGUAAUCGGUACCC
modifications: 2'-OMe (M), 2'-F (F), PS (S) as marked; uppercase DNA [2'-OMe: 1-5,7,8,10,11,13,14,17,21-26,28-31; 2'-F: 16,18,20,27; PS: 6,15,19; DNA: 9]
B2: aptamer No. 90 (mixed)
mixed: B1 RNA with U16T, U20T
modifications: 2'-OMe (M), 2'-F (F), PS (S) as marked; uppercase DNA [2'-OMe: 1-5,7,8,10,11,13,14,17,21,23-31; 2'-F: 18; PS: 6,15,19; DNA: 9,16,20]
B3: aptamer No. 65 (mixed)
mixed: B1 RNA with U16T, U20T
modifications: 2'-OMe (M), 2'-F (F), PS (S) as marked; uppercase DNA [2'-OMe: 1-5,7,8,10,13,14,21-31; 2'-F: 11,17,18; PS: 6]
B4: aptamer No. 60 (mixed)
mixed: B1 RNA with U16T, U20T
modifications: 2'-OMe (M), 2'-F (F), PS (S) as marked; uppercase DNA [2'-OMe: 1,2,3,4,5,7,8,10,13,14,19,21,22,23,24,25,26,28,29,30,31; 2'-F: 11,17,18,27; PS: 6,15]
B5: aptamer No. 81 (mixed)
mixed: B1 RNA with U16T, U20T
modifications: 2'-OMe (M), 2'-F (F), PS (S) as marked; uppercase DNA [2'-OMe: 1-5,7,8,10,11,13,14,17,21-31; 2'-F: 18; PS: 6,15,19; DNA: 9,16,20]
B6: aptamer No. 62 (mixed)
mixed: B1 RNA with U16T, U20T
modifications: 2'-OMe (M), 2'-F (F), PS (S) as marked; uppercase DNA [2'-OMe: 1,2,3,4,5,7,8,10,13,14,21,22,23,24,25,26,28,29,30,31; 2'-F: 11,17,18,27; PS: 6]
B7: aptamer No. 94 (mixed)
RNA: B1 RNA
modifications: 2'-OMe (M), 2'-F (F), PS (S) as marked; uppercase DNA [2'-OMe: 1-5,7,8,10,11,13,14,23-26,28-31; 2'-F: 16-18,20,27; PS: 6,15,19; DNA: 9]
B8: aptamer No. 87 (mixed)
mixed: B1 RNA with U16T, U20T, A21G
modifications: 2'-OMe (M), 2'-F (F), PS (S) as marked; uppercase DNA [2'-OMe: 1-5,7,8,10,11,13,14,17,22-31; 2'-F: 18; PS: 6,15,19; DNA: 9,16,20]
B9: aptamer No. 85 (mixed)
RNA: B1 RNA
modifications: 2'-OMe (M), 2'-F (F), PS (S) as marked; uppercase DNA [2'-OMe: 1-5,7,8,10,11,13,14,21-26,28-31; 2'-F: 16,17,18,20,27; PS: 6,15,19; DNA: 9]
B10: aptamer No. 73 (mixed)
RNA: B1 RNA
modifications: 2'-OMe (M), 2'-F (F), PS (S) as marked; uppercase DNA [2'-OMe: 1-5,7,8,10,13,14,21-31; 2'-F: 11,16,17,18,20; PS: 6,15,19]
B11: aptamer No. 72 (mixed)
RNA: B1 RNA
modifications: 2'-OMe (M), 2'-F (F), PS (S) as marked; uppercase DNA [2'-OMe: 1-5,7,8,10,13,14,21-31; 2'-F: 11,16,17,18,20; PS: 6]
B12: aptamer No. 52 (mixed)
mixed: B1 RNA with U16T, U20T
modifications: 2'-OMe (M), 2'-F (F), PS (S) as marked; uppercase DNA [2'-OMe: 1-4,7,8,10,13,14,21-26,28; 2'-F: 11,17,18,27; PS: 6,15]
B13: aptamer No. 76 (mixed)
RNA: B1 RNA
modifications: 2'-OMe (M), 2'-F (F) as marked; uppercase DNA [2'-OMe: 1-5,7,8,10,13,14,21-26,29-31; 2'-F: 11,16,17,18,20,27]
B14: aptamer No. 89 (mixed)
mixed: B1 RNA with U16T, U20T
modifications: 2'-OMe (M), 2'-F (F), PS (S) as marked; uppercase DNA [2'-OMe: 1-5,7,8,10,11,13,14,17,22-31; 2'-F: 18; PS: 6,15,19; DNA: 9,16,20]
B15: aptamer No. 59 (mixed)
mixed: B1 RNA with U16T, U20T
modifications: 2'-OMe (M), 2'-F (F), PS (S) as marked; uppercase DNA [2'-OMe: 1,2,3,4,7,8,10,13,14,19,21,22,23,24,25,26,28,29,30,31; 2'-F: 11,17,18,27; PS: 6,15]
B16: aptamer No. 93 (mixed)
RNA: B1 RNA
modifications: 2'-OMe (M), 2'-F (F), PS (S) as marked; uppercase DNA [2'-OMe: 1-5,7,8,10,11,13,14,21,23-26,28-31; 2'-F: 16-18,20,27; PS: 6,15,19; DNA: 9]
B17: aptamer No. 70 (mixed)
RNA: B1 RNA
modifications: 2'-OMe (M), 2'-F (F), PS (S) as marked; uppercase DNA [2'-OMe: 1-5,7,8,10,13,14,21-26,28-31; 2'-F: 11,16,17,18,20,27; PS: 6,15,19]
B18: aptamer No. 91 (mixed)
mixed: B1 RNA with U16T, U20T
modifications: 2'-OMe (M), 2'-F (F), PS (S) as marked; uppercase DNA [2'-OMe: 1-5,7,8,10,11,13,14,17,23-31; 2'-F: 18; PS: 6,15,19; DNA: 9,16,20]
B19: aptamer No. 64 (mixed)
mixed: B1 RNA with U16T, U20T
modifications: 2'-OMe (M), 2'-F (F), PS (S) as marked; uppercase DNA [2'-OMe: 1,2,3,4,5,7,8,10,13,14,17,21,22,23,24,25,26,28,29,30,31; 2'-F: 11,18,27; PS: 6,15,19]
B20: aptamer No. 66 (mixed)
mixed: B1 RNA with U16T, U20T
modifications: 2'-OMe (M), 2'-F (F), PS (S) as marked; uppercase DNA [2'-OMe: 1-5,7,8,10,13,14,21-31; 2'-F: 11,17,18; PS: 6,15,19]
B21: aptamer No. 53 (mixed)
mixed: B1 RNA with U16T, U20T
modifications: 2'-OMe (M), 2'-F (F), PS (S) as marked; uppercase DNA [2'-OMe: 1,2,3,4,7,8,10,13,14,21,22,23,24,25,26,28; 2'-F: 11,17,18,27; PS: 6,19]
B22: aptamer No. 86 (mixed)
mixed: B1 RNA with U16T, U20T, A21G
modifications: 2'-OMe (M), 2'-F (F), PS (S) as marked; uppercase DNA [2'-OMe: 1-5,7,8,10,11,13,14,17,21-31; 2'-F: 18; PS: 6,15,19; DNA: 9,16,20]
B23: aptamer No. 56 (mixed)
mixed: B1 RNA with U16T, U20T
modifications: 2'-OMe (M), 2'-F (F), PS (S) as marked; uppercase DNA [2'-OMe: 1,2,3,4,7,8,10,13,14,21,22,23,24,25,26,28; 2'-F: 11,17,18,27; PS: 6,15,19]
B24: aptamer No. 68 (mixed)
RNA: B1 RNA
modifications: 2'-OMe (M), 2'-F (F), PS (S) as marked; uppercase DNA [2'-OMe: 1-5,7,8,10,13,14,21-26,29-31; 2'-F: 11,16,17,18,20,27; PS: 6,15,19]

target: T1, IL-17; assay: SPR; IL-17 150 nM, aptamer 12.5 or 50 nM; conditions: chain copies: 2
Method: Whether the synthesized aptamers inhibit the binding of IL-17 and IL-17 receptor was evaluated by the surface plasmon resonance method.
For the measurement, BIAcore T100 manufactured by GE Healthcare Bio Sciences was used. […] As an analyte, IL-17 (150 nM) and each aptamer (12.5 or 50 nM) shown by Table 3 were mixed, maintained for 15 min and after that the mixture was flown.

Binder | binding signal
B1 | 33.5 % IL-17/IL-17R binding remaining
B2 | 41.2 % IL-17/IL-17R binding remaining
B3 | 20.3 % IL-17/IL-17R binding remaining
B4 | 31.9 % IL-17/IL-17R binding remaining
B5 | 34.3 % IL-17/IL-17R binding remaining
B6 | 25.9 % IL-17/IL-17R binding remaining
B7 | 29.3 % IL-17/IL-17R binding remaining
B8 | 32.4 % IL-17/IL-17R binding remaining
B9 | 27.8 % IL-17/IL-17R binding remaining
B10 | 32 % IL-17/IL-17R binding remaining
B11 | 26.1 % IL-17/IL-17R binding remaining
B12 | 27.6 % IL-17/IL-17R binding remaining
B13 | 24.1 % IL-17/IL-17R binding remaining
B14 | 35.1 % IL-17/IL-17R binding remaining
B15 | 36.5 % IL-17/IL-17R binding remaining
B16 | 30.6 % IL-17/IL-17R binding remaining
B17 | 35 % IL-17/IL-17R binding remaining
B18 | 35.1 % IL-17/IL-17R binding remaining
B19 | 29.3 % IL-17/IL-17R binding remaining
B20 | 28.7 % IL-17/IL-17R binding remaining
B21 | 22.6 % IL-17/IL-17R binding remaining
B22 | 35.7 % IL-17/IL-17R binding remaining
B23 | 27 % IL-17/IL-17R binding remaining
B24 | 37 % IL-17/IL-17R binding remaining
